Changes are numbered by the printed parent chain.
B1: mAb 90 (antibody, V domains shown)
VH: EVQLVESGGGLVQPGGSLKLSCAASGFTFSGSAMHWVRQASGKGLEWVGRIRTKPNSYATSYAASVKDRFTISRDDSKNTAYLQMNSLKTEDTAVYYCIRGELEPWGQGTLVTVSS
VL: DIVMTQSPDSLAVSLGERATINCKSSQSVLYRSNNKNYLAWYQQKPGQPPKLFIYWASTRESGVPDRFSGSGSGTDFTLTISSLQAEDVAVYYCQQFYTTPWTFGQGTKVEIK
B2: mAb 46 (antibody, V domains shown)
VH: EGQLVESGGGLVQPGGSLRLSCVASGFTLSSYTLNWVRQAPGKGLEWVSYISSTSRTIYYSDSVKGRFTISRDNAKNSLYLQMNSLRDEDTALYYCAREDYYDSSGFDYWGQGTLVTVSS
VL: AIRMTQSPSSFSASTGDRVTITCRASQGISSYLAWYQQKPGKAPKLLIYTASTLQSGVPSRFSGSGSGTDFTLTIRSLQSEDFATYYCQQYYSYPRTFGQGTKVEIK
B3: mAb 49 (antibody, V domains shown)
VH: B2 VH with G2V, Q13P, S30R, L34M, K43Q, V48I, M83V, Y109C
VL: B2 VL with S30F, S31N, T50S, A51T, S77G, F83L, Y94F, E105D
B4: mAb 51 (antibody, V domains shown)
VH: B2 VH with G2V, V23A, L34M, T54S, T69S, Y109N
VL: B2 VL
B5: mAb 152 (antibody, V domains shown)
VH: QVQLVQSGAEVKKPGASVKVSCKASGYTFTAYHTHWVRQAPGQGLEWMGWIYPKSGRTTYTQKFQGRVTMTRDTSISTVYMELSRLKSDDTAVYYCARVGALLFDYWGQGTLVTVSS
VL: not shown
B6: mAb 109 (antibody, V domains shown)
VH: QVQLVESGGGVVQPGRSLRLSCVASGFPFRSYGMHWVRQAPGKGLEWVAFIWYDGSNKYYADSVRGRFTISRDNFKKMVYLQMNSLRAEDTAVYYCARDLAGIYAFDVWGQGTVVTVSS
VL: EIVMTQSPATLSVSPGERATLSCRASQSVSSNLAWYQQKPGQAPRLLIYGASTRATGIPARFSGSGSGTEFTLTVSSLQSEDFAIYYCQQYNNWRPLTFGGGTKVEIK
B7: mAb 42 (antibody, V domains shown)
VH: QAQLVQSGSELKKPGASVKVSCKASGYTFTKHSMNWVRQAPGQGLEWMGWINTNTGNPTYAQGFTGRFVFSLDTSVTTAYLQISSLKAEDTAVYYCAREGDYDFWSGFFNFDYWGQGTLVTVSS
VL: DIQMTQSPSSLSASVGDRVTITCRASQGIRNDLGWYQQKPGKAPKRLIYAASSLQSGVPSRFSGSGSGAEFTLTISSLQPEDFATYYCLQHNSYPRTFGQGTKVEIK
B8: mAb 52 (antibody, V domains shown)
VH: QVQLVQSGAEVKKPGASVKVSCKASGYTFTSHDINWVRQATGQGLEWMGWLNPNSGKTGYAQKFQGRVTMARDTSMYTADMELSSLRFEDTAVYYCARVGHYDMWPGFFSFDYWGQGTLVTVSS
VL: B7 VL with V19I, T20I, G28D, G66R, A69T, Q79H, N92R, R96Y, K103N, V104L
B9: mAb 55 (antibody, V domains shown)
VH: QVQLEQSGAEVKKPGASVKVSCKTSGYIFANYDINWVRQATGQGLEWMGWMNPKSGKAGYAQKFQGRVTMTSNTPINTAYMELSSLRSEDTAVYYCAREGHYDFWRGFYSFDYWGQGILVTVSS
VL: B7 VL with A50T, A69T, Y87F, H91Y, S93T, R96Y, V104L
B10: mAb 53 (antibody, V domains shown)
VH: QVQLVQSGAEVKKPGASVKVSCKASGYTFTSYDINWVRQATGQGLEWMGWMNPKSGKTGYAQKFQGRITMTRNTPISTVYMDLSSLRSEDTAVYYCAREGHYDFWTGYYSFDYWGQGTLVTVSS
VL: B7 VL with K39T, A69T, N92Y, R96Y, V104L
B11: mAb 272 (antibody, V domains shown)
VH: EIQLVESGGGLVQPGESLKLSCAGSGFTFSVSAMHWVRQASGKGLEWVGRIRNKANSYATAYAASVKGRFTLSRDDSKNTAYLQMNSLKTEDTAVYYCSSYYYLSGTYYNYWGQGTLVTVSS
VL: B7 VL with G28V, Y49H, A50S, S56G, A69T, L89Q, S93V, Y94N, R96C, V104L
notes: VH/VL only
B12: mAb 270 (antibody, V domains shown)
VH: B11 VH with A63D, K78R
VL: B7 VL with G28V, Y49H, A50S, S56G, A69T, L89Q, S93V, Y94N, R96C, V104L
notes: VH/VL only
B13: mAb 271 (antibody, V domains shown)
VH: B11 VH with N86D
VL: B7 VL with G28V, Y49H, A50S, S56G, A69T, L89Q, S93V, Y94N, R96C, V104L
notes: VH/VL only
B14: mAb 50 (antibody, V domains shown)
VH: B7 VH with K31R, S33A
VL: B7 VL with Y36F, K45T
B15: mAb 44 (antibody, V domains shown)
VH: B7 VH with K31R, S33A, T77S, Q82K, A97V
VL: B7 VL with Y36F, K45T
B16: mAb 47 (antibody, V domains shown)
VH: B7 VH
VL: B7 VL with A69T
B17: mAb 54 (antibody, V domains shown)
VH: EVQLEESGGGLVQPGGSLRLSCAASGFTFSRYSMNWVRQAPGKGLEWFSYISSSSRTIYYADSVKGRFTMSRDNAKNSLYLQMNSLRDEDTAVYFCARGDYYDSEGMDVWGKGTTVTVSS
VL: DIQMTQSPSTLSASVGDRVTITCRASQTITTWLAWYQQKPGKAPKLLIYKASTLESGVPSRFSGSGSGTEFTLTISSLQPDDFATYHCQQYKTFSYTFGQGTKLDIK
B18: mAb 65 (antibody, V domains shown)
VH: QVQLVESGGGVVQPGRSLRLSCAASGFTFSGYGMHWVRQAPGKGLDWVAIIYYNGNNKYYADSVKGRFTISRDNSKNTLYLQMNSLRAEDTAVYYCARGGGYNWFDPWGQGTLVIVSS
VL: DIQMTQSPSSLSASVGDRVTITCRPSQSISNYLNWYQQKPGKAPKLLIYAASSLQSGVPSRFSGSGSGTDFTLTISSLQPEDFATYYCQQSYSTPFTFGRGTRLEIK

What was measured:
[1] = target: T1, cynomolgus monkey CD3 expressed on primary T cells (cynomolgus monkey, UniProt Q95LI5 22-198; Q95LI8 22-171; Q95LI7 23-181); experiment: flow cytometry, 25 nM, cyno primary T cells
T1 construct: whole, on cells; CD3 complex on purified cynomolgus monkey T cells; also called cyno CD3
Description: (§1) Purified antibodies were confirmed to bind CD3 expressed on cells using the CytoFLEX S or LX flow cytometers (Beckman Coulter). Antibodies were diluted to 25 nM in FACS buffer (PBS+2% FBS) and were incubated with CD3-expressing cells for 30 minutes at 4° C. […] The median fluorescence intensity of the binding signal for each antibody was normalized to the isotype control to obtain a fold over isotype value. An antibody with a fold over isotype (FOI) of ≥10 was considered to be positive for binding.

[2] = target: T2, human CD3 expressed on cells (human, UniProt P07766 23-207; P04234 22-171; P09693 23-182); experiment: flow cytometry, 25 nM
T2 construct: whole, on cells; CD3 complex on Jurkat cells and on human primary T cells
Description: as §1

[3] = target: T3, cynomolgus monkey CD3 expressed on cyno primary T cells (cynomolgus monkey, UniProt Q95LI5 22-198; Q95LI8 22-171; Q95LI7 23-181); experiment: flow cytometry, cyno primary T cells
T3 construct: whole, on cells; CD3 complex on purified cynomolgus monkey CD3 pan T cells; also called cyno CD3
Description: as §1

T3 sequence (Q95LI5 22-198, chain 1 of 3): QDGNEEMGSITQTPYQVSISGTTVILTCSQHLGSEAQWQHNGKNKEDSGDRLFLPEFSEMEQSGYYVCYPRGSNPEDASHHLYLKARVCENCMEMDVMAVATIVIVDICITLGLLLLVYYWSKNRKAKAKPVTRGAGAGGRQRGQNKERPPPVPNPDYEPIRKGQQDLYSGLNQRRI
T3 sequence (Q95LI8 22-171, chain 2 of 3): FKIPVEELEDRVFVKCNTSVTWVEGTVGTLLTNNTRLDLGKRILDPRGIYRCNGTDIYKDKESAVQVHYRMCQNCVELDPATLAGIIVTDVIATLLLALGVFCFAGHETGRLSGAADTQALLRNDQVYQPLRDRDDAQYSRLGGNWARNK
T3 sequence (Q95LI7 23-181, chain 3 of 3): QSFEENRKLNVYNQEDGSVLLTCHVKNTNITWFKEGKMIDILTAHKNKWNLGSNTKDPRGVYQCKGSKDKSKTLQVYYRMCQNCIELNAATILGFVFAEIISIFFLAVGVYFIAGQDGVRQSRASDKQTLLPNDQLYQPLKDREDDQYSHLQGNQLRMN
T1 sequence (Q95LI5 22-198, chain 1 of 3): as the sequence (Q95LI5 22-198, chain 1 of 3) above
T1 sequence (Q95LI8 22-171, chain 2 of 3): as the sequence (Q95LI8 22-171, chain 2 of 3) above
T1 sequence (Q95LI7 23-181, chain 3 of 3): as the sequence (Q95LI7 23-181, chain 3 of 3) above
T2 sequence (P07766 23-207, chain 1 of 3): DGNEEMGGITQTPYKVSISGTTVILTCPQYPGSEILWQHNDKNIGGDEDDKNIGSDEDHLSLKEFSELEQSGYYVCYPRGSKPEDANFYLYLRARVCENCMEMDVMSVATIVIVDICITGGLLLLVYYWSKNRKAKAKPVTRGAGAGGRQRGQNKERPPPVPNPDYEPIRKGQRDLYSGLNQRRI
T2 sequence (P04234 22-171, chain 2 of 3): as the sequence (Q95LI8 22-171, chain 2 of 3) above, with V5I, K15N, V20I, T32S, N33D, N34I, A64T, N74S, L83V, R141H counted along it
T2 sequence (P09693 23-182, chain 3 of 3): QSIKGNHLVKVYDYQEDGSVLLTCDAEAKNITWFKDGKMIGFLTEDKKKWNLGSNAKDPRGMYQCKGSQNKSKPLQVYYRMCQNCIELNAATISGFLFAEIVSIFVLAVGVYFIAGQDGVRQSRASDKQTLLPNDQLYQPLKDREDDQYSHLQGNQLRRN

Binder	binding result [1]	Human primary T Cell Binding (FOI) [2]	Jurkat Cell Binding (FOI) [2]	binding result [3]
B1	no binding (tested: FOI >=10 = positive)	–	–	–
B2	no binding (tested: FOI >=10 = positive)	96.9 FOI	107 FOI	–
B3	no binding (tested: FOI >=10 = positive)	191 FOI	178 FOI	–
B4	no binding (tested: FOI >=10 = positive)	102 FOI	99.8 FOI	–
B5	no binding (tested: FOI >=10 = positive)	–	–	–
B6	no binding (tested: FOI >=10 = positive)	–	–	–
B7	no binding (tested: FOI >=10 = positive)	96.2 FOI	111 FOI	–
B8	no binding (tested: FOI >=10 = positive)	185 FOI	181 FOI	–
B9	no binding (tested: FOI >=10 = positive)	104 FOI	151 FOI	–
B10	no binding (tested: FOI >=10 = positive)	34.8 FOI	44.6 FOI	–
B11	–	–	–	no binding (tested: FOI <10 (FOI >=10 = positive); 25 nM)
B12	–	–	–	no binding (tested: FOI <10 (FOI >=10 = positive); 25 nM)
B13	–	–	–	no binding (tested: FOI <10 (FOI >=10 = positive); 25 nM)
B14	no binding (tested: FOI >=10 = positive)	86.4 FOI	92.5 FOI	–
B15	no binding (tested: FOI >=10 = positive)	110 FOI	131 FOI	–
B16	no binding (tested: FOI >=10 = positive)	136 FOI	112 FOI	–
B17	no binding (tested: FOI >=10 = positive)	98.5 FOI	111 FOI	–
B18	no binding (tested: FOI >=10 = positive)	199 FOI	184 FOI	–
